Measured values from PMC4691852 (Molecular cell, 2013).
Like-named read-outs stand apart in the source and are kept apart here.

B1: Bacillus subtilis MazF (toxin, mRNA interferase), expressed alone from pET-SUMO (enzyme)
chain: MIVKRGDVYFADLSPVVGSEQGGVRPVLVIQNDIGNRFSPTAIVAAITAQIQKAKLPTHVEIDAKRYGFERDSVILLEQIRTIDKQRLTDKITHLDDEMMDKVDEALQISLALIDF
B2: Bacillus subtilis MazF coexpressed with MazE from modified pRSFDuet-1 (enzyme)
chain: B1 chain
modifications: selenomethionine-labelled (for the crystals)
B3: Bacillus subtilis MazE (antitoxin) coexpressed with MazF from modified pRSFDuet-1 (natural protein)
chain: MSESSARTEMKISLPENLVAELDGVAMREKRSRNELISQAVRAYVSERTTRHNRDLMRRGYMEMAKINLNISSEAHFAECEAETTVERLVSGG
modifications: selenomethionine-labelled (for the crystals)

Key:
crystal structure [1] = target: the molecule itself; assay: crystal structure
crystal structure [2] = target: the molecule itself; assay: crystal structure; remark: listed apart in the source
MazF = target: T1, MazF (Bacillus subtilis, UniProt P96622 1-116); assay: ITC
T1 sequence: B1 chain

Binder | stoichiometry N (crystal structure [2]) | other results
B1 | – | stoichiometry N (crystal structure [1]): 2
B2 | 2 | –
B3 | 2 | –
UUUACAUAA (ssRNA, 2'-deoxyuridine at position 3 (other residues ribo)) [uncleavable 9-mer RNA UUdUACAUAA] | – | Kd (MazF): 64 nM
